This note sets out measurements from patent publication US20260008822A1 (RECOURSE BIOLOGICS, published 2026).

In this assay the target is T1, E0 (EGFR-OMCP bispecific fusion protein: cetuximab scFv - (GGGGS)3 linker - OMCP - His8 tag).
T1 construct: also called OMCP-EGFR; OMCP-EGFR scFv
As to the kind of experiment: SPR (ProteOn XPR36), human NKG2D amine-coupled to the chip, bispecific as analyte, 1:1 Langmuir fit.

B1: human NKG2D (receptor, UniProt P26718 78-216, looked up)
chain: FLNSLFNQEVQIPLTESYCGPCPKNWICYKNNCYQFFDESKNWYESQASCMSQNASLLKVYSKEDQDLLKLVKSYHWMGLVHIPTNGSWQWEDGSILSPNLLTIIEMQKGDCALYASSFKGYIENCSTPNTYICMQRTV
Molecule B1 gave an equilibrium dissociation constant (Kd) of 0.17 nM.
